Assays:
[1] = biological target: SgcE10, chymotrypsin digested (crystallised form) (Streptomyces globisporus); test: crystal structure
[2] = biological target: SgcE10, thioesterase (TE) of the 9-membered enediyne C-1027 biosynthetic machinery (Streptomyces globisporus); test: SEC

stoichiometry N [1] | stoichiometry N [2] | Substance
4 |  | SgcE10, chymotrypsin digested (crystallised form) (enzyme)
 | 4 | SgcE10, thioesterase (TE) of the 9-membered enediyne C-1027 biosynthetic machinery (enzyme)

Reference: publication PMC5579567
